Test results reported in PMC10482962, “Structural and functional analysis of aquaporin-2 mutants involved in nephrogenic diabetes insipidus” (Scientific Reports, 2023).

B1: human aquaporin-2 (AQP2), truncated after residue 242 (domain or fragment, UniProt P41181 1-242, looked up)
chain: MWELRSIAFSRAVFAEFLATLLFVFFGLGSALNWPQALPSVLQIAMAFGLGIGTLVQALGHISGAHINPAVTVACLVGCHVSVLRAAFYVAAQLLGAVAGAALLHEITPADIRGDLAVNALSNSTTAGQAVTVELFLTLQLVLCIFASTDERRGENPGTPALSIGFSVALGHLLGIHYTGCSMNPARSLAPAVVTGKFDDHWVFWIGPLVGAILGSLLYNYVLFPPAKSLSERLAVLKGLEP
notes: aquaporin-2 (AQP2), human, C-terminal truncation at P242; the construct used for the structure PDB 4NEF; His-tag removed by TEV protease before SEC; also called wild-type AQP2; hAQP2; source: Pichia pastoris X33, purified (IMAC, TEV cleavage, second IMAC, SEC); not shown: His8, N-terminal, cleaved
B2: human aquaporin-2 (AQP2) T125M, truncated after residue 242 (domain or fragment, UniProt P41181 1-242, looked up)
chain: MWELRSIAFSRAVFAEFLATLLFVFFGLGSALNWPQALPSVLQIAMAFGLGIGTLVQALGHISGAHINPAVTVACLVGCHVSVLRAAFYVAAQLLGAVAGAALLHEITPADIRGDLAVNALSNSMTAGQAVTVELFLTLQLVLCIFASTDERRGENPGTPALSIGFSVALGHLLGIHYTGCSMNPARSLAPAVVTGKFDDHWVFWIGPLVGAILGSLLYNYVLFPPAKSLSERLAVLKGLEP
notes: aquaporin-2 (AQP2), human, C-terminal truncation at P242, with the recessive NDI patient mutation T125M; Mutation identified in patients with autosomal recessive NDI; same construct limits as m1; source: Pichia pastoris X33, purified (IMAC, TEV cleavage, second IMAC, SEC); not shown: His8, N-terminal, cleaved
B3: aquaporin-2 (AQP2): T125M (protein)
parent chain: MWELRSIAFSRAVFAEFLATLLFVFFGLGSALNWPQALPSVLQIAMAFGLGIGTLVQALGHISGAHINPAVTVACLVGCHVSVLRAAFYVAAQLLGAVAGAALLHEITPADIRGDLAVNALSNSTTAGQAVTVELFLTLQLVLCIFASTDERRGENPGTPALSIGFSVALGHLLGIHYTGCSMNPARSLAPAVVTGKFDDHWVFWIGPLVGAILGSLLYNYVLFPPAKSLSERLAVLKGLEPDTDWEEREVRRRQSVELHSPQSLPRGTKA

Key:
[1] = target: the molecule itself; experiment: SEC; size-exclusion chromatography of the purified protein immediately prior to reconstitution into liposomes; peak integrals quantified in % of the total population to estimate the oligomeric states
[2] = size-exclusion chromatography; details: glycan lost; control: wild-type AQP2 (same construct)

Protein | stoichiometry N [1] | oligomerisation [2]
B1 | 4 | 
B2 | 4 | 
B3 |  | no change
